Reference: US20030186853A1, “Novel corticotropin-releasing hormone analogs” (The Regents of the University of California, Office of …, published 2003)
Like-named read-outs stand apart in the source and are kept apart here. Non-standard residues stand in square brackets, D forms with d. No end group written: not given here.

Key:
CRH1 receptor [1] = biological target: T1, CRH1 receptor (mouse, UniProt P35347)
CRH1 receptor [2] = biological target: T1, CRH1 receptor; experiment: cell-based or functional assay

Molecule: acetyl-cyclo(30-33)[D-Phe^12, Nle^18, D-Glu^20, Nle^21, Glu^30, D-Ala^32]-urotensin I(4-41) (peptide)
- EC50, inhibition of proliferation of Cloudman melanoma cells (cell count) (CRH1 receptor [1]): 0.36 picomolar

Molecule: SEEPPISLDLTFHLLREVLEMARAEQLAQQAHSNRKLMEII-NH2 (ligand) [Corticotropin-releasing hormone (CRH), human/rat]
- EC50, inhibition of proliferation of Cloudman melanoma cells (cell count) (CRH1 receptor [2]): 8.6 picomolar

Molecule: SEEPPISLDLTFHLLREVL[dE]MARAEQLAQQAHSNRKLMEII-NH2 [[D-Glu^20]-CRH]
- EC50, inhibition of proliferation of Cloudman melanoma cells (cell count) (CRH1 receptor [2]): 16 picomolar

Molecule: SEEP[dP]ISLDLTFHLLREVLEMARAEQLAQQAHSNRKLMEII-NH2 [[D-Pro^5]-CRH]
- EC50, inhibition of proliferation of Cloudman melanoma cells (cell count) (CRH1 receptor [2]): 82 picomolar

Molecule: DNPSLSIDLTFHLLRTLLELARTQSQRERAEQNRIIFDSV-NH2 (ligand) [Urocortin (human)]
- EC50, inhibition of proliferation of Cloudman melanoma cells (cell count) (CRH1 receptor [2]): 9.5 picomolar
